Key:
IL-23 binding to IL-23R = experiment: Competition SPR: IL-23 binding to captured IL-23R-Fc-AVI in the presence of peptide; conditions: concentration tested 0.1 μM; 20 nM IL-23, IL-23R-Fc-AVI on Protein-A, 30 s injection, 1% BSA buffer; n = 1
Protocol: SPR (Biacore T200, GE Healthcare) was used to determine binding constants of the peptides against IL-23 and their competitiveness to IL-23R. All SPR experiments were performed at 25°C with flow rate of 50 μl/min. Assay buffer used in direct binding experiment was 10 mM HEPES pH 7.5, 150 mM NaCl, 0.005% P20, and 3% DMSO. Assay buffer used in competition experiment was 10 mM HEPES pH 7.5, 150 mM NaCl, 0.005% P20, and 1% BSA. All peptides were reconstituted first in DMSO as 10 mM stocks and then diluted into assay buffer. The proteins used in direct binding and competition SPR are described in S1 Table in S1 File. For direct binding of peptides against IL-23, 2000–9000 RU of IL-23-AVI was captured to streptavidin sensor chips (GE Healthcare, Series S Sensor Chip SA, BR-1005-31). Dilution series with 3-fold increment were prepared for each peptide. Initially, all peptides were tested up to 30 μM. […] IL-23 at 20 nM without peptide, “IL-23 only”, was used as control to quantify IL-23 binding without blockage; while “cold” IL-23R was used as a positive control for blockage.
The design of competition SPR was based on a knockdown assay (Fig 5A). […] Response levels of IL-23 plus peptide were measured post injection (Fig 5B) to avoid possible bulk RI difference between analyte and running buffer. […]

IL-23 = biological target: T1, IL-23 (Homo sapiens, UniProt P29460+Q9NPF7); experiment: SPR direct binding to captured IL-23-AVI (Biacore T200); conditions: IL-23-AVI captured on streptavidin chip, 25°C, 1:1 binding model, n = 1, 23–447 an estimate
T1 construct: made in house
T1 sequence (Q9NPF7 20-189): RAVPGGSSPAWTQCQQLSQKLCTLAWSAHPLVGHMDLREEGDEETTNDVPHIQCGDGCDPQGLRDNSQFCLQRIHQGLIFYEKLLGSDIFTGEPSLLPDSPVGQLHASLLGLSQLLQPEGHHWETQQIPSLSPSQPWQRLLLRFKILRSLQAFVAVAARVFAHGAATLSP
T1 sequence (P29460 23-328): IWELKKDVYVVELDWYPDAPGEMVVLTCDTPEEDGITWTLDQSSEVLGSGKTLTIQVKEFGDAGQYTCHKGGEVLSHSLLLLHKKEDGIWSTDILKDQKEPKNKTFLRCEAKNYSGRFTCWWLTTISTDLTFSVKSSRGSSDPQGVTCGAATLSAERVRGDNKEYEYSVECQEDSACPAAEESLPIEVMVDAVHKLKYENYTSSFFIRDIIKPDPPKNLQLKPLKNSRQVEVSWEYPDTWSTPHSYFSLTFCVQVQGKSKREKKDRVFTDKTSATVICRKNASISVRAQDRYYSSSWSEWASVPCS
Protocol: SPR (Biacore T200, GE Healthcare) was used to determine binding constants of the peptides against IL-23 and their competitiveness to IL-23R. All SPR experiments were performed at 25°C with flow rate of 50 μl/min. Assay buffer used in direct binding experiment was 10 mM HEPES pH 7.5, 150 mM NaCl, 0.005% P20, and 3% DMSO. Assay buffer used in competition experiment was 10 mM HEPES pH 7.5, 150 mM NaCl, 0.005% P20, and 1% BSA. All peptides were reconstituted first in DMSO as 10 mM stocks and then diluted into assay buffer. The proteins used in direct binding and competition SPR are described in S1 Table in S1 File. For direct binding of peptides against IL-23, 2000–9000 RU of IL-23-AVI was captured to streptavidin sensor chips (GE Healthcare, Series S Sensor Chip SA, BR-1005-31). Dilution series with 3-fold increment were prepared for each peptide. Initially, all peptides were tested up to 30 μM. Concentration range for some were then lowered accordingly based on affinity or nuisance behavior at high concentrations. SPR “multi-cycle” type was used for peptides 23–644, 23–437, 23–441, 23–446, and 23–447. Each cycle consisted of 30s of analyte injection and then 60s of buffer flow to monitor dissociation. “Single cycle kinetics” (SCK) type was used for 23–652 due to their long dissociation half-lives. Each SCK cycle consisted of five 60s injections of sample in increasing concentration with a final 600s of dissociation. To study IL-23 and IL-23R interaction, 200–1000 RU of IL-23-AVI and IL-23R-Fc-AVI were captured to streptavidin sensor chip. Dilution series with 3-fold increment of IL-23R-FLAG-HIS and IL-23-HIS were run in SCK cycle type as described above except the final dissociation time were 60-300s. Sensorgrams from the entire titration series for each sample were fitted globally to extract binding kinetics and affinity using Biacore T200 Evaluation Software 2.0 (GE Healthcare) according to a 1:1 binding model. To identify IL-23 binders that can block receptor binding, a competition SPR was established. In each SPR cycle, fresh IL-23R was capture (<1000 RU) by injecting 10 μg/ml of IL-23R-Fc-AVI to a Protein-A flow cell at 10 μl/min flow rate for 30s. Analyte consisted of a mixture of 20 nM of IL-23 protein and a single concentration of peptide was then injected for 30s at 50 μl/min to observe IL-23 binding. Finally, the Protein-A surface was regenerated by 10 mM Glycine pH 1.5 for 30s at 30 μl/min. IL-23 at 20 nM without peptide, “IL-23 only”, was used as control to quantify IL-23 binding without blockage; while “cold” IL-23R was used as a positive control for blockage.

Competition SPR %Inhibition (IL-23 binding to IL-23R): 98.0%
kd (IL-23): 0.00151 s⁻¹
ka (IL-23; 50 μl/min, 10 mM HEPES pH 7.5, 150 mM NaCl, 0.005% P20, 3% DMSO, multi-cycle (single cycle kinetics for 23–652 and IL-23R)): 170000 M⁻¹ s⁻¹
B1: IL-23R: IL23R ECD (aa 1-353) with C-terminal Flag and HIS tags produced in HEK293 cells; positive control for blockage (protein)
chain: GITNINCSGHIWVEPATIFKMGMNISIYCQAAIKNCQPRKLHFYKNGIKERFQITRINKTTARLWYKNFLEPHASMYCTAECPKHFQETLICGKDISSGYPPDIPDEVTCVIYEYSGNMTCTWNAGKLTYIDTKYVVHVKSLETEEEQQYLTSSYINISTDSLQGGKKYLVWVQAANALGMEESKQLQIHLDDIVIPSAAVISRAETINATVPKTIIYWDSQTTIEKVSCEMRYKATTNQTWNVKEFDTNFTYVQQSEFYLEPNIKYVFQVRCQETGKRYWQPWSSLFFHKTPETVPQVTSKAFQHDTWNSGLTVASISTGHLTSDNRGDIGLLLGMIVFAVMLSILSLIGIFNRSFRTGIKRRILLLIPKWLYEDIPNMKNSNVVKMLQENSELMNNNSSEQVLYVDPMITEIKEIFIPEHKPTDYKKENTGPLETRDYPQNSLFDNTTVVYIPDLNTGYKPQISNFLPEGSHLSNNNEITSLTLKPPVDSLDSGNNPRLQKHPNFAFSVSSVNSLSNTIFLGELSLILNQGECSSPDIQNSVEEETTMLLENDSPSETIPEQTLLPDEFVSCLGIVNEELPSINTYFPQNILESHFNRISLLEK
modifications: fluorescent label (dye and site not stated)

— article PMC7263589, “Integration of phage and yeast display platforms: A reliable and cost effective approach for binning of peptides as displayed on-phage” (PLoS ONE, 2020)
